Test results reported in patent US10309966B2, “Personalized therapy of inflammation-associated cancer using methods of assessing the susceptibility of a subject to the treatment with EGFR inhibitors/antagonists” (Medizinische Universität Wien, priority 2014, dated 2019).

B1: IL-6: recombinant mouse IL-6 administered by oral gavage (protein, UniProt P08505 25-211, looked up)
Interleukin-6: FPTSQVRRGDFTEDTTPNRPVYTTSQVGGLITHVLWEIVEMRKELCNGNSDCMNNDDALAENNLKLPEIQRNDGCYQTGYNQEICLLKISSGLLEYHSYLEYMKNNLKDNKKDKARVLQRDTETLIHIFNQEVKDLHKIVLPTPISNALLTDKLESQKEWLRTKTIQFILKSLEEFLKVTLRSTRQT
B2: gp130: glycoprotein-130, exogenously administered to inhibit IL-6 trans-signaling (protein, UniProt P40189 23-918, looked up)
Interleukin-6 receptor …: ELLDPCGYISPESPVVQLHSNFTAVCVLKEKCMDYFHVNANYIVWKTNHFTIPKEQYTIINRTASSVTFTDIASLNIQLTCNILTFGQLEQNVYGITIISGLPPEKPKNLSCIVNEGKKMRCEWDGGRETHLETNFTLKSEWATHKFADCKAKRDTPTSCTVDYSTVYFVNIEVWVEAENALGKVTSDHINFDPVYKVKPNPPHNLSVINSEELSSILKLTWTNPSIKSVIILKYNIQYRTKDASTWSQIPPEDTASTRSSFTVQDLKPFTEYVFRIRCMKEDGKGYWSDWSEEASGITYEDRPSKAPSFWYKIDPSHTQGYRTVQLVWKTLPPFEANGKILDYEVTLTRWKSHLQNYTVNATKLTVNLTNDRYLATLTVRNLVGKSDAAVLTIPACDFQATHPVMDLKAFPKDNMLWVEWTTPRESVKKYILEWCVLSDKAPCITDWQQEDGTVHRTYLRGNLAESKCYLITVTPVYADGPGSPESIKAYLKQAPPSKGPTVRTKKVGKNEAVLEWDQLPVDVQNGFIRNYTIFYRTIIGNETAVNVDSSHTEYTLSSLTSDTLYMVRMAAYTDEGGKDGPEFTFTTPKFAQGEIEAIVVPVCLAFLLTTLLGVLFCFNKRDLIKKHIWPNVPDPSKSHIAQWSPHTPPRHNFNSKDQMYSDGNFTDVSVVEIEANDKKPFPEDLKSLDLFKKEKINTEGHSSGIGGSSCMSSSRPSISSSDENESSQNTSSTVQYSTVVHSGYRHQVPSVQVFSRSESTQPLLDSEERPEDLQLVDHVDGGDGILPRQQYFKQNCSQHESSPDISHFERSKQVSSVNEEDFVRLKQQISDHISQSCGSGQMKMFQEVSAADAFGPGTEGQVERFETVGMEAATDEGMPKSYLPQTVRQGGYMPQ

Columns and labels:
[1] = tested on: DSS-induced colitis; assay: Oral recombinant IL-6 during DSS-induced colitis in EGFR mutant mice; assay type: in vivo, mouse; conditions: for DSS-induced weight loss: IL-6 orally during DSS, FIG. 17B; for epithelial proliferation during colitis (BrdU): FIGS. 18A, 26A
Description: Colitis was induced by administering 2.5% dextran sulfate sodium salt (DSS) (MP Biomedicals, 0216011080) in autoclaved drinking water for 5 d followed by 5 d of normal water (Chalaris, A. et al., 2010). Colon tumors in mice were induced as previously described (Wirtz, S. et al., 2007; Tanaka, T. et al., 2003). Briefly, mice were injected i.p. with 7.5 mg/kg azoxymethane (AOM) (Sigma-Aldrich, A5486) followed by repeated administration of DSS. 300 U recombinant mouse IL-6 (ImmunoTools GmbH, Germany) was administered by oral gavage.
Mice were injected with 10 mg/kg BrdU 2.5 hrs prior to sacrifice. The colons were extracted, flushed with ice cold PBS to remove feces, fixed overnight at 4° C. in neutral buffered 4% formaldehyde as “Swiss Rolls”, which were further dehydrated, embedded in paraffin and sectioned. Sections were stained with Haematoxylin and Eosin (Sigma), Alcian blue, Giemsa and PAS. Colitis severity and tumor stage were scored and graded by pathologists in a blinded manner according to previously described criteria (Dube, P. E. et al., 2012; Musteanu, M. et al., 2010). For immunohistochemistry, sections were dewaxed, rehydrated and boiled in Citrate buffer pH 6.1 (S1699, Dakocytomation, Glostrup, Denmark) for antigen recovery. Endogenous peroxidase was quenched by incubation with 3% H2O2 in TBS, followed by blocking with 10% goat serum in 2% BSA in TBS—0.1% Tween. Sections were then incubated overnight with antibodies against β-catenin (Cell Signaling, Danvers, Mass.; 9582), cleaved caspase 3 (Cell Signaling; 9661), lysozyme (Dako; A0099), EGFR (sc-03, Santa Cruz Biotechnology, Santa Cruz, Calif.), pTyr705-STAT3 (9145, Cell Signaling), survivin (Cell Signaling; 2808) and synaptophysin (GTX100865, GeneTex Irvine, Calif.), respectively. All sections were further treated with SignalStain® Boost (Cell Signaling; 8114) to detect bound antibody and with liquid3-Amino-9-Ethylcarbazole Chromogen/Substrate (BP 1108, ID LABS™ ON, Canada) for peroxidase staining and counterstained with Haematoxylin (HHS32, Sigma-Aldrich). For BrdU staining, sections were treated with 2 N HCl after antigen recovery, blocked as described above and incubated with anti-BrdU antibody (347580, BD Biosciences) and further with secondary antibody (Invitrogen A-11018) and counterstained with DAPI.
Intestinal barrier permeability was assessed as previously described (Chalaris, A. et al., 2010). Briefly, mice were orally gavaged with 60 mg/kg FITC-Dextran (Sigma FD4), food and water were withdrawn 4 h prior to gavage. FITC levels were determined in the serum 4 h post gavage by absorption at 488 nm using standard dilutions of FITC-Dextran as reference.

[2] = tested on: IL-6 trans-signaling; conditions: exogenous administration, mouse model of CAC; cited from earlier work

Molecule	DSS-induced weight loss ([1]; Egfr^wa2/wa2 mice)	epithelial proliferation during colitis (BrdU) ([1]; Egfr^wa2/wa2 mice)	apoptosis (cleaved Caspase 3) ([1]; Egfr^ΔIEC mice)	apoptosis (cleaved Caspase 3) ([1]; Egfr^ΔMYL and Egfr^wa2/wa2 mice, FIGS. 18B, 26B)	pY-STAT3 nuclear localization in crypts ([1]; Egfr^ΔMYL mice during DSS treatment, FIGS. 18C, 18D)	DSS-induced weight loss ([1]; Egfr^ΔMYL mice)	number of ulcers ([1]; Egfr^ΔMYL mice, FIG. 17D)	loss of epithelial barrier function (FITC-dextran in serum) ([1]; Egfr^ΔMYL mice, FIG. 17E)	epithelial proliferation during colitis (BrdU) ([1]; Egfr^ΔMYL mice)	colitis and tumor development [2]
B1	partially rescued	partially	decreased	not affected	fully restored	able to protect	decreased	protected	fully	
B2										substantial decrease
